Where no end group is shown, it is not given here. The star is where a group is joined. Octanoyl = CCCCCCCC(=O)*
What was measured:
anti-hGhrelin Fab 2291 [1] = test: competitive ELISA; competitor at 5 µg/ml preincubated with Fab 2291 0.1 µg/ml, OD of Fab bound to BSA-hGhrelin wells
anti-hGhrelin Fab 2291 [2] = test: competitive ELISA; competitor at 1 µg/ml preincubated with Fab 2291 0.1 µg/ml, OD of Fab bound to BSA-hGhrelin wells
anti-hGhrelin Fab 2291 [3] = test: competitive ELISA; competitor at 0.2 µg/ml preincubated with Fab 2291 0.1 µg/ml, OD of Fab bound to BSA-hGhrelin wells

Sequence of anti-hGhrelin Fab 2291 (VH, as listed by the source, chain 1 of 2): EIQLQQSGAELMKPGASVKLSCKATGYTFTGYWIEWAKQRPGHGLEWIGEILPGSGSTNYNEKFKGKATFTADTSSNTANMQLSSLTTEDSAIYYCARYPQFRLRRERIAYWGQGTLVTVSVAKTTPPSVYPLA
Sequence of anti-hGhrelin Fab 2291 (VL, as listed by the source, chain 2 of 2): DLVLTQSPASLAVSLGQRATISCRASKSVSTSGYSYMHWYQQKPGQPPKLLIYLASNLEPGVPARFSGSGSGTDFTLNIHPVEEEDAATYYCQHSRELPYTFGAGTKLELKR

Ave. OD (490 nm) (anti-hGhrelin Fab 2291 [1])	Ave. OD (490 nm) (anti-hGhrelin Fab 2291 [2])	Ave. OD (490 nm) (anti-hGhrelin Fab 2291 [3])	Binder
0.729 OD (490 nm)	0.663 OD (490 nm)	0.633 OD (490 nm)	GSSFLSPEHQRVQQRKESKKPPAKLQPR [des-acyl-hGhrelin, full-length, non-acylated human ghrelin]
0.702 OD (490 nm)	0.69 OD (490 nm)	0.607 OD (490 nm)	GSSFLSPEH(Octanoyl)QRVQQRKESKKPPAKLQPR [hGhrelin-His9-acylated]

— patent publication US20060269550A1
